Results as given in US20260116991A1 (HAINAN SIMCERE ZAIMING PHARMACEUTICAL, published 2026).
Numbering of substitutions follows the chain as printed. Blank lines part the entries; values can stand above or below the binder they belong to.

Assays:
human GPC3-His protein = target: T1, human GPC3-His protein (human, UniProt P51654 25-559); assay: SPR, antibody captured on Protein A chip, human GPC3-His analyte;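 note: measured at 25 °C flow cell, human GPC3-His injected at five concentrations up to 200 nM, 240 s association, up to 600 s dissociation, double-referenced, fitted to Langmuir 1:1 model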
T1 construct: also called human GPC3 protein; not shown: His tag

monkey GPC3-His protein [1] = target: T2, monkey GPC3-His protein (monkey); assay: SPR, antibody captured on Protein A chip, monkey GPC3-His analyte;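 note: run at 25 °C with 240 s association and up to 600 s dissociation, double-referenced, kinetics fitted to a 1:1 Langmuir binding model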
T2 construct: Bought recombinant protein; also called monkey GPC3 protein

monkey GPC3-His protein [2] = target: T2, monkey GPC3-His protein; assay: ELISA, monkey GPC3-His coated;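 note: Plate-coated antigen at 1 µg/mL, antibody binding 2 h at 37 °C, detected with HRP-labeled secondary antibody and TMB, absorbance at 450 nm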
Experimental: The specific method is described as follows: The antigen protein was diluted with PBS to a final concentration of 1 μg/mL, and the diluent was added to a 96-well ELISA plate at 50 μL/well. The plate was sealed with a plastic film and incubated at 4° C. overnight, washed twice with PBS the next day, and a blocking solution [PBS+2% (w/w) BSA] was added for blocking at room temperature for 2 h. […] After incubation at 37° C. for 2 h, the plate was washed 3 times with PBS. A horseradish peroxidase (HRP)-labeled secondary antibody (purchased from Merck, Cat. No. AP113P) was added for incubation at 37° C. for 1 h, and the plate was washed 5 times with PBS. A TMB substrate was added at 50 μL/well for incubation at room temperature for 10 min, then a stop solution (1.0M HCl) was added at 50 μL/well. An ELISA plate reader (Multimode Plate Reader, EnSight, purchased from Perkin Elmer) was used to read OD_{450 nm} values, with results as shown in Table 4 to Table 6, FIG. 1A, FIG. 1B, and FIG. 1C.

[3] = target: T3, monkey GPC3 on HEK293T-monkey GPC3 cells (monkey); assay: FACS on HEK293T-monkey GPC3 cells;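 note: flow cytometry binding of test antibodies to the cells, read as mean fluorescence intensity, with half-maximal concentration taken from fitted curves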
T3 construct: whole, on cells
Experimental: The desired cells were expanded to a logarithmic growth phase in a T-75 cell culture flask, the medium was removed by pipetting, and the cells were washed twice with a PBS buffer, and digested with trypsin. Then a complete medium was added to stop the digestion, and the cells were blown into a single cell suspension. After counting, the cells were centrifuged, and the cell pellet was resuspended with an FACS buffer (PBS+2% fetal bovine serum) to 2×10⁶ cells/mL. The cell resuspension solution was added to a 96-well FACS reaction plate at 50 μl/well, and a chimeric antibody sample to be tested was added at 50 μl/well for incubation at 4° C. for 1 h. […] After the plate was centrifuged and washed 3 times with a PBS buffer, 100 μl of the resulting solution was assayed and analyzed by FACS (FACS Canto™, purchased from BD Biosciences). Data analysis was performed by software (FlowJo) to obtain the mean fluorescence intensity (MFI) of the cells. Then, analysis was performed by software (GraphPad Prism8), data were fitted, and EC₅₀ values were calculated.

B2: F2.23.8 (antibody, human IgG1, kappa, V domains shown)
VH: QVQLQQSGAELVRPGASVKLSCKASGYTFTDYEMHWVKQTPVHGLEWFGAIDPETGGTAYNQKFRAKATLTADKSSSTAYMELRSLTSEDSAVYYCTRFYSFAYWGQGTLVTVSA
VL: DVVMTQTPLSLPVSLGDQASISCRSSQSLVHSNGNTYLQWYLQKPGQSPKLLIYKVSNRFSGVPDRFSGSGSGTDFTLKITRVEAEDLGVYFCSQSTHVPYTFGSGTKLEIKR
notes: Human-murine chimeric antibody
Kd (human GPC3-His protein): 20.4 nM
koff (human GPC3-His protein): 0.00327 s⁻¹
kon (human GPC3-His protein): 161000 M⁻¹ s⁻¹
Kd (monkey GPC3-His protein [1]): 13.5 nM
koff (monkey GPC3-His protein [1]): 0.0038 s⁻¹
kon (monkey GPC3-His protein [1]): 281000 M⁻¹ s⁻¹
OD450 at 0.0001 nM (monkey GPC3-His protein [2]): 0.27 OD450
OD450 at 0.001 nM (monkey GPC3-His protein [2]): 0.28 OD450
OD450 at 0.01 nM (monkey GPC3-His protein [2]): 0.58 OD450
OD450 at 0.1 nM (monkey GPC3-His protein [2]): 1.8 OD450
OD450 at 1 nM (monkey GPC3-His protein [2]): 2.22 OD450
OD450 at 10 nM (monkey GPC3-His protein [2]): 2.24 OD450
OD450 at 100 nM (monkey GPC3-His protein [2]): 2.25 OD450

B4: F1.42.8 (antibody, human IgG1, kappa, V domains shown)
VH: HVQLQQPGAELVKPGASVKLSCKASGYTFTSYWMHWVRQRPGQGLEWIEMIHPNSGSTNYNEKFKSKATLTVDKSSSTAYMQLSSLTSEDSAVYYCARGNYNSSLYAMDYWGQGTSVTVSS
VL: DIQMTQTTSSLSASLGDRVTISCSASQGISNYLNWYQQKPDGTVKLLIYYASNLHSGVPSRFSGSGSGTAYSLTISNLEPEDIATYYCQQYSILPYTFGGGTKLEIKR
notes: as for B2
EC50 [3]: 0.27 nM
Max MFI [3]: 7620 MFI
OD450 at 0.0001 nM (monkey GPC3-His protein [2]): 0.05 OD450
OD450 at 0.001 nM (monkey GPC3-His protein [2]): 0.08 OD450
OD450 at 0.01 nM (monkey GPC3-His protein [2]): 0.35 OD450
OD450 at 0.1 nM (monkey GPC3-His protein [2]): 1.61 OD450
OD450 at 1 nM (monkey GPC3-His protein [2]): 2.31 OD450
OD450 at 10 nM (monkey GPC3-His protein [2]): 2.46 OD450
OD450 at 100 nM (monkey GPC3-His protein [2]): 2.67 OD450

B7: F1.73.9 (antibody, human IgG1, kappa, V domains shown)
VH: QVQLKQSGAELVRPGASVKLSCKASGYTFTDYYINWVKQRPGQGLEWIARIYPGSGNTYYNEKFKGKATLTAEKSSSTAYMQFSSLTSEDSAVYFCACSTYYTMDYWGQGTSVTVSS
VL: QIVLTQSPAIMSASLGERVTMTCTASSGVSSSYLHWYQQKPGSSPKLWIYTTSNLASGVPARFSGSGSGTSYSLTISSMEAEDAATYYCHQYHRSPYTFGGGTKLEIKR
notes: as for B2
EC50 [3]: 0.32 nM
Max MFI [3]: 5700 MFI
OD450 at 0.0001 nM (monkey GPC3-His protein [2]): 0.05 OD450
OD450 at 0.001 nM (monkey GPC3-His protein [2]): 0.06 OD450
OD450 at 0.01 nM (monkey GPC3-His protein [2]): 0.18 OD450
OD450 at 0.1 nM (monkey GPC3-His protein [2]): 0.73 OD450
OD450 at 1 nM (monkey GPC3-His protein [2]): 1.14 OD450
OD450 at 10 nM (monkey GPC3-His protein [2]): 1.27 OD450
OD450 at 100 nM (monkey GPC3-His protein [2]): 1.47 OD450

Continued, values first:

Kd (human GPC3-His protein): 6.97 nM
koff (human GPC3-His protein): 0.0021 s⁻¹
kon (human GPC3-His protein): 302000 M⁻¹ s⁻¹
Kd (monkey GPC3-His protein [1]): 4.28 nM
koff (monkey GPC3-His protein [1]): 0.00219 s⁻¹
kon (monkey GPC3-His protein [1]): 512000 M⁻¹ s⁻¹
OD450 at 0.0001 nM (monkey GPC3-His protein [2]): 0.21 OD450
OD450 at 0.001 nM (monkey GPC3-His protein [2]): 0.34 OD450
OD450 at 0.01 nM (monkey GPC3-His protein [2]): 0.66 OD450
OD450 at 0.1 nM (monkey GPC3-His protein [2]): 1.98 OD450
OD450 at 1 nM (monkey GPC3-His protein [2]): 2.36 OD450
OD450 at 10 nM (monkey GPC3-His protein [2]): 2.28 OD450
OD450 at 100 nM (monkey GPC3-His protein [2]): 2.35 OD450
B1: F2.39.2 (antibody, human IgG1, kappa, V domains shown)
VH: B2 VH with L20V, V37M, F48I, I51N, D52E, G57R, T58S, N61D, R65K, A66G
VL: B2 VL with S28G, S32N, Q39H, T81S, S96N, Y101P, S105G
notes: as for B2

Kd (human GPC3-His protein): 0.6 nM
koff (human GPC3-His protein): 0.000242 s⁻¹
kon (human GPC3-His protein): 404000 M⁻¹ s⁻¹
Kd (monkey GPC3-His protein [1]): 0.353 nM
koff (monkey GPC3-His protein [1]): 0.000221 s⁻¹
kon (monkey GPC3-His protein [1]): 628000 M⁻¹ s⁻¹
OD450 at 0.0001 nM (monkey GPC3-His protein [2]): 0.23 OD450
OD450 at 0.001 nM (monkey GPC3-His protein [2]): 0.27 OD450
OD450 at 0.01 nM (monkey GPC3-His protein [2]): 0.65 OD450
OD450 at 0.1 nM (monkey GPC3-His protein [2]): 1.9 OD450
OD450 at 1 nM (monkey GPC3-His protein [2]): 2.3 OD450
OD450 at 10 nM (monkey GPC3-His protein [2]): 2.24 OD450
OD450 at 100 nM (monkey GPC3-His protein [2]): 2.34 OD450
B3: F2.92.1 (antibody, human IgG1, kappa, V domains shown)
VH: B2 VH with T28I, T30S, M34I, W47C, F48I, I51V, R65K, A66G, Y95F, A115T
VL: B2 VL with A19G, T81S, S94C, P100L, Y101P, S105G
notes: as for B2

Kd (human GPC3-His protein): 7.91 nM
koff (human GPC3-His protein): 0.0021 s⁻¹
kon (human GPC3-His protein): 265000 M⁻¹ s⁻¹
EC50 [3]: 0.23 nM
Max MFI [3]: 6210 MFI
Kd (monkey GPC3-His protein [1]): 4.42 nM
koff (monkey GPC3-His protein [1]): 0.00213 s⁻¹
kon (monkey GPC3-His protein [1]): 482000 M⁻¹ s⁻¹
OD450 at 0.0001 nM (monkey GPC3-His protein [2]): 0.05 OD450
OD450 at 0.001 nM (monkey GPC3-His protein [2]): 0.06 OD450
OD450 at 0.01 nM (monkey GPC3-His protein [2]): 0.11 OD450
OD450 at 0.1 nM (monkey GPC3-His protein [2]): 0.46 OD450
OD450 at 1 nM (monkey GPC3-His protein [2]): 0.83 OD450
OD450 at 10 nM (monkey GPC3-His protein [2]): 0.81 OD450
OD450 at 100 nM (monkey GPC3-His protein [2]): 1.24 OD450
B5: F1.41.17 (antibody, human IgG1, kappa, V domains shown)
VH: EVQLVESGGDSVKPGGSLKLSCAASGFTFSSYGMSWVRQTPDKRLEWVATINSGGSYTYYQDSVKGRFTISRDNAKNTLYLQMSSLKSEDTAIYYCVRHHYGSSYDYFDYWGQGTTLTVSS
VL: DIVMTQAAPSVPVMPGESVSISCRSSKSLLHSNGNTHLYWFLQRPGQSPQLLIYRMSNLASGVPDRFSGSGSGTAFTLRISRVEAEDVGVYYCMQHLEYPLTFGAGTKLELKR
notes: as for B2

Kd (human GPC3-His protein): 0.92 nM
koff (human GPC3-His protein): 6.22e-05 s⁻¹
kon (human GPC3-His protein): 67600 M⁻¹ s⁻¹
Kd (monkey GPC3-His protein [1]): 0.414 nM
koff (monkey GPC3-His protein [1]): 4.27e-05 s⁻¹
kon (monkey GPC3-His protein [1]): 103000 M⁻¹ s⁻¹
OD450 at 0.0001 nM (monkey GPC3-His protein [2]): 0.27 OD450
OD450 at 0.001 nM (monkey GPC3-His protein [2]): 0.36 OD450
OD450 at 0.01 nM (monkey GPC3-His protein [2]): 0.49 OD450
OD450 at 0.1 nM (monkey GPC3-His protein [2]): 1.06 OD450
OD450 at 1 nM (monkey GPC3-His protein [2]): 1.61 OD450
OD450 at 10 nM (monkey GPC3-His protein [2]): 1.98 OD450
OD450 at 100 nM (monkey GPC3-His protein [2]): 2 OD450
B6: F1.153.1 (antibody, human IgG1, kappa, V domains shown)
VH: QIQLVQSGPELKKPGETVKISCKASGYTFTTAGMQWVQKMPGKGFKWIGWINTHSGEPQYAEDFKGRFAFSLETSASTAYLQISNLKNEDTATYFCARSFYYHGSSFFYFDYWGQGTTLTVSS
VL: DIVMTQSQKFMSTTVGDRVSITCKASQNVGTAVAWYQQKPGQSPKLLIYSASNRYTGVPDRFTGSGSGADFTLTISNMQSEDLADYFCQQYSRYPLTFGAGTKLELKR
notes: as for B2
